Data reported in US20070041944A1, “Treating tumors by ENH dislocation of ID proteins” (THE TRUSTEES OF COLUMBIA UNIVERSITY IN THE CITY OF NEW YORK, priority 2005, published 2007).

Experiments:
[1] = target: T1, GST-Id1 (Homo sapiens, UniProt P41134); experiment: GST pull-down assay with GST-Id1; type: binding; settings: in vitro-translated 35S-labeled ENH (FIG. 2B Right)
T1 construct: made in house; host or cells: E. coli BL21 Star (Invitrogen)
T1 sequence (P41134 1-155): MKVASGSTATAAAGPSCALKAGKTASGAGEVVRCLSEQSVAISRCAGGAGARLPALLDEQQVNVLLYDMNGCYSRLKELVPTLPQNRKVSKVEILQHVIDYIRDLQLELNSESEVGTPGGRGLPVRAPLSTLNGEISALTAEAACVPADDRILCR
Protocol: GST Pull-Down Assay, Western Blot, and Coimmunoprecipitation: GST fusion proteins were purified from BL21 Star (Invitrogen). GST pull-down assay was performed as described in lavarone, A. et al., (1994), Genes Dev., 8:1270-1284. For Wetern blot analysis, cellular pellets were lysed in ice-cold RIPA buffer (50 mM Tris, pH 7.5/150 mM NaCl/1% Nonidet P-40/0.5% sodium deoxycholate/0.1% SDS) containing Complete Mini protease inhibitor pellet (Roche) and 1 mM PMSF. Lysates were electrophoresed on SDS/PAGE gels and transferred to nitrocellulose membrane (Amersham Pharmacia Biotech). Membranes were stained with antibodies against ENH, Id2 (Santa Cruz Biotechnology), and α-tubulin (Sigma), and blots were developed by using ECLWestem Blotting Detection System (Amersham Pharmacia Biotech). The anti-ENH antibody is a rabbit polyclonal that was produced in collaboration with Zymed against a peptide that is fully conserved in the mouse sequence (KQQNGPPRKHI (SEQ ID NO:1)). Coimmunoprecipitation of Id2 and ENH from cells transfected with pcDNA.3-Id2 and p3XFlag-ENH was performed as described (lavarone, A. et al., (2004), Nature, 432:1040-1045).
Given the high homology among the HLH domains of the three Id proteins, it was asked whether Id1 and Id3 could also bind ENH in this assay. Indeed, both GST-Id1 and GST-Id3 bound to full-length ENH (FIG. 2B Right).

[2] = system: Id2 inhibition of E47-mediated transcription; experiment: E-box-luciferase reporter assay; type: cell-based, human; settings: E-box-luc with E47, Id2 and increasing amounts of ENH (0.375, 0.5, 0.625 μg); FIG. 6A
Protocol: Luciferase Assay: The luciferase reporter construct 5xE-box-luciferase (Lasorella, A. et al., (1996) Mol. Cell. Biol., 16:2570-2578) was cotransfected with pcDNA.3-E47 and pcDNA.3 vector or pcDNA.3-Id2 and pcDNA.3-ENH into SK-N-SH cells. pCMV-β-gal was cotransfected for normalization. Twenty-four hours later luciferase and β-galactosidase activities were measured as described (Lasorella, A. et al., (2000) Nature, 407:592-598).
To test the hypothesis that ENH restrains the inhibitory effects of Id2 on bHLH-mediated transcription by acting as a cytoplasmic retention factor for Id2, luciferase reporter assays were performed with five multimerized E-boxes driving expression of luciferase (E-box-luc). The E-box-luc plasmid was transfected in the presence of mammalian expression vectors for the ubiquitously expressed bHLH protein E47, Id2, and increasing amounts of ENH. Id2 inhibition of E47-mediated transcription was relieved by coexpression of ENH in a dose-dependent manner (FIG. 6A).

[3] = system: endogenous Id2 in SK-N-SH cells; experiment: Subcellular localization of endogenous Id2 after ectopic Flag-ENH (immunofluorescence); type: cell-based, human; settings: SK-N-SH transiently transfected with Flag-ENH (FIG. 4B)
Protocol: Quantitative Analysis of Subcellular Localization of Id2 and siRNA Experiments: SK-N-SH-Flag-Id2 cells untreated or treated with RA for 48 h were fixed in 4% paraformaldehyde. Flag-Id2 and endogenous ENH were immunostained by using Flag-M2 (Sigma) and ENH antibodies, respectively. SK-N-SH cells were transfected with vector or p3XFlag-ENH and immunostained by using Flag-M2 and Id2 (Zymed) antibodies. For silencing of ENH, ENH siRNA (siGenome Smartpool reagent M-006930-00) and control, nontargeting (siGenome Smartpool reagent D-001206-13) siRNA mixtures were purchased from Dharmacon. SK-N-SH cells stably expressing Flag-Id2 were treated with vehicle control or RA for 48 h and transfected with 60 nM siRNAs by using Lipofectamine 2000 (Invitrogen). Thirty-six hours after transfection cells were fixed in 4% paraformaldehyde and immunostained by using Flag-M2 antibodies. Parallel cultures were analyzed by Western blot. Secondary antibodies were FITC- or Cy3-conjugated anti-rabbit and Cy3-conjugated anti-mouse (Jackson ImmunoResearch). Nuclei were counterstained with DAPI. Slides were mounted in 90% glycerol in PBS and analyzed on an Olympus epifluorescence microscope. The percentage of cells displaying Id2 staining in the nucleus was scored by counting at least 500 cells from triplicate samples. […]

B1: ENH: actin cytoskeleton-associated PDZ-LIM protein ENH (Enigma Homologue), full-length, SEQ ID NO:4; also used Flag-tagged (protein, listed as Homo sapiens)
chain: MSNYSVSLVGPAPWGFRLQGGKDFNMPLTISSLKDGGKAAQANVRIGDVVLSIDGINAQGMTHLEAQNKIKGCTGSLNMTLQRASAAPKPEPVPVQKGEPKEVVKPVPITSPAVSKVTSTNNMAYNKAPRPFGSVSSPKVTSIPSPSSAFTPAHATTSSHASPSPVAAVTPPLFAASGLHANANLSADQSPSALSAGKTAVNVPRQPTVTSVCSETSQELAEGQRRGSQGDSKQQNGPPRKHIVERYTEFYHVPTHSDASKKRLIEDTEDWRPRTGTTQSRSFRILAQITGTEHLKESEADNTKKANNSQEPSPQLASSVASTRSMPESLDSPTSGRPGVTSLTTAAAFKPVGSTGVIKSPSWQRPNQGVPSTGRISNSATYSGSVAPANSALGQTQPSDQDTLVQRAEHIPAGKRTPMCAHCNQVIRGPFLVALGKSWHPEEFNCAHCKNTMAYIGFVEEKGALYCELCYEKFFAPECGRCQRKILGEVINALKQTWHVSCFVCVACGKPIRNNVFHLEDGEPYCETDYYALFGTICHGCEFPIEAGDMFLEALGYTWHDTCFVCSVCCESLEGQTFFSKKDKPLCKKHAHSVNF
- binding of GST-Id1 to ENH [1]: bound
- Id2 inhibition of E47-mediated transcription (luciferase activity) [2]: relieved
- subcellular localization of endogenous Id2 [3]: translocation of Id2 to the cytoplasm
